Data published in patent US20210388087A1.

Biological target: Human CD137 ECD (human)
Test: single mutant vs template dBBDu183H

Sequence of Human CD137 ECD (human) (chain, as listed by the source limits assumed): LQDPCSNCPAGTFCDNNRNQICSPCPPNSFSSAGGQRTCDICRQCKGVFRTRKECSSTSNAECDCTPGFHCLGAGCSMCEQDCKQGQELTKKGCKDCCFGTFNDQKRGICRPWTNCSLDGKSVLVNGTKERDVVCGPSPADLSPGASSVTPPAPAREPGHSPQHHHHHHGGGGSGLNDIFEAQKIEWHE

Row | Binder | fold change of affinity
1 | H183/L072 VH F29Q (antibody, name in Kabat numbering, V domains shown) VH: QVQLVESGGGLVQPGRSLRLSCAASGFTQSNAWMHWVRQAPGKGLEWVAQIKDKGNAYAAYYAPSVKGRFTISRDDSKNSIYLQMNSLKTEDTAVYYCHYVHYASASTVLPAFGVDAWGQGTTVTVSS VL: DIVMTQSPLSLPVTPGEPASISCQASQELVHMNRNTYLHWYQQKPGQAPRLLIYKVSNRFPGVPDRFSGSGSGTDFTLKISRVEAEDVGVYYCAQGTSVPFTFGQGTKLEIK | 0 fold
2 | H183/L072 VH M34S (antibody, name in Kabat numbering, V domains shown) VH: QVQLVESGGGLVQPGRSLRLSCAASGFTFSNAWSHWVRQAPGKGLEWVAQIKDKGNAYAAYYAPSVKGRFTISRDDSKNSIYLQMNSLKTEDTAVYYCHYVHYASASTVLPAFGVDAWGQGTTVTVSS VL: DIVMTQSPLSLPVTPGEPASISCQASQELVHMNRNTYLHWYQQKPGQAPRLLIYKVSNRFPGVPDRFSGSGSGTDFTLKISRVEAEDVGVYYCAQGTSVPFTFGQGTKLEIK | 0 fold
3 | H183/L072 VH D52aT (antibody, name in Kabat numbering, V domains shown) VH: QVQLVESGGGLVQPGRSLRLSCAASGFTFSNAWMHWVRQAPGKGLEWVAQIKTKGNAYAAYYAPSVKGRFTISRDDSKNSIYLQMNSLKTEDTAVYYCHYVHYASASTVLPAFGVDAWGQGTTVTVSS VL: DIVMTQSPLSLPVTPGEPASISCQASQELVHMNRNTYLHWYQQKPGQAPRLLIYKVSNRFPGVPDRFSGSGSGTDFTLKISRVEAEDVGVYYCAQGTSVPFTFGQGTKLEIK | 0 fold
4 | H183/L072 VH H35Q (antibody, name in Kabat numbering, V domains shown) VH: QVQLVESGGGLVQPGRSLRLSCAASGFTFSNAWMQWVRQAPGKGLEWVAQIKDKGNAYAAYYAPSVKGRFTISRDDSKNSIYLQMNSLKTEDTAVYYCHYVHYASASTVLPAFGVDAWGQGTTVTVSS VL: DIVMTQSPLSLPVTPGEPASISCQASQELVHMNRNTYLHWYQQKPGQAPRLLIYKVSNRFPGVPDRFSGSGSGTDFTLKISRVEAEDVGVYYCAQGTSVPFTFGQGTKLEIK | 0 fold
5 | H183/L072 VH W33Q (antibody, name in Kabat numbering, V domains shown) VH: QVQLVESGGGLVQPGRSLRLSCAASGFTFSNAQMHWVRQAPGKGLEWVAQIKDKGNAYAAYYAPSVKGRFTISRDDSKNSIYLQMNSLKTEDTAVYYCHYVHYASASTVLPAFGVDAWGQGTTVTVSS VL: DIVMTQSPLSLPVTPGEPASISCQASQELVHMNRNTYLHWYQQKPGQAPRLLIYKVSNRFPGVPDRFSGSGSGTDFTLKISRVEAEDVGVYYCAQGTSVPFTFGQGTKLEIK | 0 fold
6 | H183/L072 VH I51Q (antibody, name in Kabat numbering, V domains shown) VH: QVQLVESGGGLVQPGRSLRLSCAASGFTFSNAWMHWVRQAPGKGLEWVAQQKDKGNAYAAYYAPSVKGRFTISRDDSKNSIYLQMNSLKTEDTAVYYCHYVHYASASTVLPAFGVDAWGQGTTVTVSS VL: DIVMTQSPLSLPVTPGEPASISCQASQELVHMNRNTYLHWYQQKPGQAPRLLIYKVSNRFPGVPDRFSGSGSGTDFTLKISRVEAEDVGVYYCAQGTSVPFTFGQGTKLEIK | 0 fold
7 | H183/L072 VH K52T (antibody, name in Kabat numbering, V domains shown) VH: QVQLVESGGGLVQPGRSLRLSCAASGFTFSNAWMHWVRQAPGKGLEWVAQITDKGNAYAAYYAPSVKGRFTISRDDSKNSIYLQMNSLKTEDTAVYYCHYVHYASASTVLPAFGVDAWGQGTTVTVSS VL: DIVMTQSPLSLPVTPGEPASISCQASQELVHMNRNTYLHWYQQKPGQAPRLLIYKVSNRFPGVPDRFSGSGSGTDFTLKISRVEAEDVGVYYCAQGTSVPFTFGQGTKLEIK | 0 fold
8 | H183/L072 VH T28S (antibody, name in Kabat numbering, V domains shown) VH: QVQLVESGGGLVQPGRSLRLSCAASGFSFSNAWMHWVRQAPGKGLEWVAQIKDKGNAYAAYYAPSVKGRFTISRDDSKNSIYLQMNSLKTEDTAVYYCHYVHYASASTVLPAFGVDAWGQGTTVTVSS VL: DIVMTQSPLSLPVTPGEPASISCQASQELVHMNRNTYLHWYQQKPGQAPRLLIYKVSNRFPGVPDRFSGSGSGTDFTLKISRVEAEDVGVYYCAQGTSVPFTFGQGTKLEIK | 0 fold
9 | H183/L072 VH N53Q (antibody, name in Kabat numbering, V domains shown) VH: QVQLVESGGGLVQPGRSLRLSCAASGFTFSNAWMHWVRQAPGKGLEWVAQIKDKGQAYAAYYAPSVKGRFTISRDDSKNSIYLQMNSLKTEDTAVYYCHYVHYASASTVLPAFGVDAWGQGTTVTVSS VL: DIVMTQSPLSLPVTPGEPASISCQASQELVHMNRNTYLHWYQQKPGQAPRLLIYKVSNRFPGVPDRFSGSGSGTDFTLKISRVEAEDVGVYYCAQGTSVPFTFGQGTKLEIK | 0 fold
10 | H183/L072 VH M34Q (antibody, name in Kabat numbering, V domains shown) VH: QVQLVESGGGLVQPGRSLRLSCAASGFTFSNAWQHWVRQAPGKGLEWVAQIKDKGNAYAAYYAPSVKGRFTISRDDSKNSIYLQMNSLKTEDTAVYYCHYVHYASASTVLPAFGVDAWGQGTTVTVSS VL: DIVMTQSPLSLPVTPGEPASISCQASQELVHMNRNTYLHWYQQKPGQAPRLLIYKVSNRFPGVPDRFSGSGSGTDFTLKISRVEAEDVGVYYCAQGTSVPFTFGQGTKLEIK | 0 fold
11 | H183/L072 VH F29S (antibody, name in Kabat numbering, V domains shown) VH: QVQLVESGGGLVQPGRSLRLSCAASGFTSSNAWMHWVRQAPGKGLEWVAQIKDKGNAYAAYYAPSVKGRFTISRDDSKNSIYLQMNSLKTEDTAVYYCHYVHYASASTVLPAFGVDAWGQGTTVTVSS VL: DIVMTQSPLSLPVTPGEPASISCQASQELVHMNRNTYLHWYQQKPGQAPRLLIYKVSNRFPGVPDRFSGSGSGTDFTLKISRVEAEDVGVYYCAQGTSVPFTFGQGTKLEIK | 0 fold
12 | H183/L072 VH D52aS (antibody, name in Kabat numbering, V domains shown) VH: QVQLVESGGGLVQPGRSLRLSCAASGFTFSNAWMHWVRQAPGKGLEWVAQIKSKGNAYAAYYAPSVKGRFTISRDDSKNSIYLQMNSLKTEDTAVYYCHYVHYASASTVLPAFGVDAWGQGTTVTVSS VL: DIVMTQSPLSLPVTPGEPASISCQASQELVHMNRNTYLHWYQQKPGQAPRLLIYKVSNRFPGVPDRFSGSGSGTDFTLKISRVEAEDVGVYYCAQGTSVPFTFGQGTKLEIK | 0 fold
13 | H183/L072 VH K52S (antibody, name in Kabat numbering, V domains shown) VH: QVQLVESGGGLVQPGRSLRLSCAASGFTFSNAWMHWVRQAPGKGLEWVAQISDKGNAYAAYYAPSVKGRFTISRDDSKNSIYLQMNSLKTEDTAVYYCHYVHYASASTVLPAFGVDAWGQGTTVTVSS VL: DIVMTQSPLSLPVTPGEPASISCQASQELVHMNRNTYLHWYQQKPGQAPRLLIYKVSNRFPGVPDRFSGSGSGTDFTLKISRVEAEDVGVYYCAQGTSVPFTFGQGTKLEIK | 0 fold
14 | H183/L072 VH N53S (antibody, name in Kabat numbering, V domains shown) VH: QVQLVESGGGLVQPGRSLRLSCAASGFTFSNAWMHWVRQAPGKGLEWVAQIKDKGSAYAAYYAPSVKGRFTISRDDSKNSIYLQMNSLKTEDTAVYYCHYVHYASASTVLPAFGVDAWGQGTTVTVSS VL: DIVMTQSPLSLPVTPGEPASISCQASQELVHMNRNTYLHWYQQKPGQAPRLLIYKVSNRFPGVPDRFSGSGSGTDFTLKISRVEAEDVGVYYCAQGTSVPFTFGQGTKLEIK | 0 fold
15 | H183/L072 VH W33S (antibody, name in Kabat numbering, V domains shown) VH: QVQLVESGGGLVQPGRSLRLSCAASGFTFSNASMHWVRQAPGKGLEWVAQIKDKGNAYAAYYAPSVKGRFTISRDDSKNSIYLQMNSLKTEDTAVYYCHYVHYASASTVLPAFGVDAWGQGTTVTVSS VL: DIVMTQSPLSLPVTPGEPASISCQASQELVHMNRNTYLHWYQQKPGQAPRLLIYKVSNRFPGVPDRFSGSGSGTDFTLKISRVEAEDVGVYYCAQGTSVPFTFGQGTKLEIK | 0 fold
16 | H183/L072 VH N53T (antibody, name in Kabat numbering, V domains shown) VH: QVQLVESGGGLVQPGRSLRLSCAASGFTFSNAWMHWVRQAPGKGLEWVAQIKDKGTAYAAYYAPSVKGRFTISRDDSKNSIYLQMNSLKTEDTAVYYCHYVHYASASTVLPAFGVDAWGQGTTVTVSS VL: DIVMTQSPLSLPVTPGEPASISCQASQELVHMNRNTYLHWYQQKPGQAPRLLIYKVSNRFPGVPDRFSGSGSGTDFTLKISRVEAEDVGVYYCAQGTSVPFTFGQGTKLEIK | 0 fold
17 | H183/L072 VH M34T (antibody, name in Kabat numbering, V domains shown) VH: QVQLVESGGGLVQPGRSLRLSCAASGFTFSNAWTHWVRQAPGKGLEWVAQIKDKGNAYAAYYAPSVKGRFTISRDDSKNSIYLQMNSLKTEDTAVYYCHYVHYASASTVLPAFGVDAWGQGTTVTVSS VL: DIVMTQSPLSLPVTPGEPASISCQASQELVHMNRNTYLHWYQQKPGQAPRLLIYKVSNRFPGVPDRFSGSGSGTDFTLKISRVEAEDVGVYYCAQGTSVPFTFGQGTKLEIK | 0 fold
18 | H183/L072 VH Y55S (antibody, name in Kabat numbering, V domains shown) VH: QVQLVESGGGLVQPGRSLRLSCAASGFTFSNAWMHWVRQAPGKGLEWVAQIKDKGNASAAYYAPSVKGRFTISRDDSKNSIYLQMNSLKTEDTAVYYCHYVHYASASTVLPAFGVDAWGQGTTVTVSS VL: DIVMTQSPLSLPVTPGEPASISCQASQELVHMNRNTYLHWYQQKPGQAPRLLIYKVSNRFPGVPDRFSGSGSGTDFTLKISRVEAEDVGVYYCAQGTSVPFTFGQGTKLEIK | 0 fold
19 | H183/L072 VH W33T (antibody, name in Kabat numbering, V domains shown) VH: QVQLVESGGGLVQPGRSLRLSCAASGFTFSNATMHWVRQAPGKGLEWVAQIKDKGNAYAAYYAPSVKGRFTISRDDSKNSIYLQMNSLKTEDTAVYYCHYVHYASASTVLPAFGVDAWGQGTTVTVSS VL: DIVMTQSPLSLPVTPGEPASISCQASQELVHMNRNTYLHWYQQKPGQAPRLLIYKVSNRFPGVPDRFSGSGSGTDFTLKISRVEAEDVGVYYCAQGTSVPFTFGQGTKLEIK | 0 fold
20 | H183/L072 VH H35S (antibody, name in Kabat numbering, V domains shown) VH: QVQLVESGGGLVQPGRSLRLSCAASGFTFSNAWMSWVRQAPGKGLEWVAQIKDKGNAYAAYYAPSVKGRFTISRDDSKNSIYLQMNSLKTEDTAVYYCHYVHYASASTVLPAFGVDAWGQGTTVTVSS VL: DIVMTQSPLSLPVTPGEPASISCQASQELVHMNRNTYLHWYQQKPGQAPRLLIYKVSNRFPGVPDRFSGSGSGTDFTLKISRVEAEDVGVYYCAQGTSVPFTFGQGTKLEIK | 0 fold
21 | H183/L072 VH D52aQ (antibody, name in Kabat numbering, V domains shown) VH: QVQLVESGGGLVQPGRSLRLSCAASGFTFSNAWMHWVRQAPGKGLEWVAQIKQKGNAYAAYYAPSVKGRFTISRDDSKNSIYLQMNSLKTEDTAVYYCHYVHYASASTVLPAFGVDAWGQGTTVTVSS VL: DIVMTQSPLSLPVTPGEPASISCQASQELVHMNRNTYLHWYQQKPGQAPRLLIYKVSNRFPGVPDRFSGSGSGTDFTLKISRVEAEDVGVYYCAQGTSVPFTFGQGTKLEIK | 0 fold
